Series [1] has as its system HeLa Kyoto. In words: solubility change mitosis vs G1/S (difference of NP-40 vs SDS log2 ratios) (log2 ratio difference); higher = more soluble in mitosis.
In series [2] the test system is HeLa Kyoto. Kind of series: solubility in G1/S (NP-40 vs SDS abundance) (log2 ratio); higher = more soluble. The following applies: cell cycle stage: G1/S.
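For solubility change mitosis vs G1/S (difference of NP-40 vs SDS log2 ratios) in this document: synchronized HeLa Kyoto cells (double thymidine block for G1/S, nocodazole release for mitosis), protein amounts in NP-40 versus SDS lysates quantified by mass spectrometry, three biological replicates.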
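For solubility in G1/S (NP-40 vs SDS abundance) in this document: HeLa Kyoto cells arrested at G1/S by double thymidine block, proteins quantified by TMT10plex mass spectrometry in mild NP-40 versus SDS extracts, three biological replicates.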

Turning to “MAALKEDRSYGLSCGRVSDGSKVSVFHVKLTDSALRAFESYRARQDSVSLRPSIRFQGSQGHISIPQPDCPAEARTFSFYLSNIGRDNPQGSFDCIQQYVSSHGEVHLDCLGSIQDKITVCATDDSYQKARQSMAQAEEETRSRSAIVIKAGGRYLGKKVQFRKPAPGATDAVPSRKRATPINLASAIRKSGASAVSGGSGVSQRPFRDRVLHLLALRPYRKAELLLRLQKDGLTQADKDALDGLLQQVANMSAKDGTCTLQDCMYKDVQKDWPGYSEGDQQLLKRVLVRKLCQPQSTGSLLGDPAASSPPGERGRSASPPQKRLQPPDFIDPLANKKPRISHFTQRAQPAVNGKLGVPNGREALLPTPGPPASTDTLSSSTHLPPRLEPPRAHDPLADVSNDLGHSGRDCEHGEAAAPAPTVRLGLPLLTDCAQPSRPHGSPSRSKPKKKSKKHKDKERAAEDKPRAQLPDCAPATHATPGAPADTPGLNGTCSVSSVPTSTSETPDYLLKYAAISSSEQRQSYKNDFNAEYSEYRDLHARIERITRRFTQLDAQLRQLSQGSEEYETTRGQILQEYRKIKKTNTNYSQEKHRCEYLHSKLAHIKRLIAEYDQRQLQAWP”, in the series with HeLa Kyoto [1], the “solubility change mitosis (log2)” value turned out to be 0.218. Moreover, the “solubility in G1/S (log2)” value in the series with HeLa Kyoto [2] was -0.0524.

“MAALTPRKRKQDSLKCDSLLHFTENLFPSPNKKHCFYQNSDKNEENLHCSQQEHFVLSALKTTEINRLPSANQGSPFKSALSTVSFYNQNKWYLNPLERKLIKESRSTCLKTNDEDKSFPIVTEKMQGKPVCSKKNNKKPQKSLTAKYQPKYRHIKPVSRNSRNSKQNRVIYKPIVEKENNCHSAENNSNAPRVLSQKIKPQVTLQGGAAFFVRKKSSLRKSSLENEPSLGRTQKSKSEVIEDSDVETVSEKKTFATRQVPKCLVLEEKLKIGLLSASSKNKEKLIKDSSDDRVSSKEHKVDKNEAFSSEDSLGENKTISPKSTVYPIFSASSVNSKRSLGEEQFSVGSVNFMKQTNIQKNTNTRDTSKKTKDQLIIDAGQKHFGATVCKSCGMIYTASNPEDEMQHVQHHHRFLEGIKYVGWKKERVVAEFWDGKIVLVLPHDPSFAIKKVEDVQELVDNELGFQQVVPKCPNKIKTFLFISDEKRVVGCLIAEPIKQAFRVLSEPIGPESPSSTECPRAWQCSDVPEPAVCGISRIWVFRLKRRKRIARRLVDTLRNCFMFGCFLSTDEIAFSDPTPDGKLFATKYCNTPNFLVYNFNS [ESCO2]”: in the series with HeLa Kyoto [1], the “solubility change mitosis (log2)” value was 0.997. Moreover, the “solubility in G1/S (log2)” value in the series with HeLa Kyoto [2] was -0.994.

As to “MAAPSLLNWRRVSSFTGPVPRARHGHRAVAIRELMIIFGGGNEGIADELHVYNTATNQWFLPAVRGDIPPGCAAHGFVCDGTRILVFGGMVEYGRYSNELYELQASRWLWKKVKPHPPPSGLPPCPRLGHSFSLYGNKCYLFGGLANESEDSNNNVPRYLNDFYELELQHGSGVVGWSIPVTKGVVPSPRESHTAVIYCKKDSGSPKMYVFGGMCGARLDDLWQLDLETMSWSKPETKGTVPLPRSLHTASVIGNKMYIFGGWVPHKGENTETSPHDCEWRCTSSFSYLNLDTTEWTTLVSDSQEDKKNSRPRPRAGHCAVAIGTRLYFWSGRDGYKKALNSQVCCKDLWYLDTEKPPAPSQVQLIKATTNSFHVKWDEVSTVEGYLLQLSTDLPYQAASSDSSAAPNMQGVRMDPHRQGSNNIVPNSINDTINSTKTEQPATKETSMKNKPDFKALTDSNAILYPSLASNASNHNSHVVDMLRKNEGPHTSANVGVLSSCLDVRTVIPETSVSSTVSSTQTMVTQQTIKTESSSTNGAVVKDETSLTTFSTKSEVDETYALPATKISRVETHATATPFSKETPSNPVATVKAGERQWCDVGIFKNNTALVSQFYLLPKGKQSISKVGNADVPDYSLLKKQDLVPGTGYRFRVAAINGCGIGPFSKISEFKTCIPGFPGAPSAVRISKNVEGIHLSWEPPTSPSGNILEYSAYLAIRTAQIQDNPSQLVFMRIYCGLKTSCIVTAGQLANAHIDYTSRPAIVFRISAKNEKGYGPATQVRWLQGNNKKAPLN [HCFC2]”, the “solubility change mitosis (log2)” value in the series on HeLa Kyoto [1] is -0.0821. Also, the “solubility in G1/S (log2)” value in the series with HeLa Kyoto [2] is -0.228.

In the case of “MAATLILEPAGRCCWDEPVRIAVRGLAPEQPVTLRASLRDEKGALFQAHARYRADTLGELDLERAPALGGSFAGLEPMGLLWALEPEKPLVRLVKRDVRTPLAVELEVLDGHDPDPGRLLCRVRHERYFLPPGVRREPVRAGRVRGTLFLPPEPGPFPGIVDMFGTGGGLLEYRASLLAGKGFAVMALAYYNYEDLPKTMETLHLEYFEEAVNYLLSHPEVKGPGVGLLGISKGGELCLSMASFLKGITAAVVINGSVANVGGTLRYKGETLPPVGVNRNRIKVTKDGYADIVDVLNSPLEGPDQKSFIPVERAESTFLFLVGQDDHNWKSEFYANEACKRLQAHGRRKPQIICYPETGHYIEPPYFPLCRASLHALVGSPIIWGGEPRAHAMAQVDAWKQLQTFFHKHLGGHEGTIPSKV [ACOT1]”, the “solubility change mitosis (log2)” value with HeLa Kyoto [1] is -0.000552. In addition, the “solubility in G1/S (log2)” value with HeLa Kyoto [2] was 0.138.

For “MAAVEAAAEPVTVVAAVGPKAKDEEEEEEEPLPPCEAVRWAPVGAVAEARPGATAFLEEATAEEPGAAPGSPPDSPGRTLRRLRAERRRLDSALLALSSHFAQVQFRLRQVVRGAPAEQQRLLRELEDFAFRGCPHVLGYEGPGDPASDEGDGLPGDRPWLRGEDQSEQEKQERLETQREKQKELILQLKTQLDDLETFAYQEGSYDSLPQSVVLERQRVIIDELIKKLDMNLNEDISSLSTEELRQRVDAAVAQIVNPARVKEQLVEQLKTQIRDLEMFINFIQDEVGSPLQTGGGHCECKAGGKTGNGCSRTGSSRTPPGNSKTKAEDVKKVRETGLHLMRRALAVLQIFAVSQFGCATGQIPPTLWQRVQADRDYSPLLKRLEVSVDRVKQLALRQQPHDHVITSANLQDLSLGGKDELTMAVRKELTVAVRDLLAHGLYASSPGMSLVMAPIACLLPAFSSAPEAMHPWELFVKYYHAKNGRAYVESPARKLSQSFALPVTGGTVVTPKQSLLTAIHMVLTEHDPFKRSADSELKALVCMALNEQRLVSWVNLICKSGSLIEPHYQPWSYMAHTGFESALNLLSRLSSLKFSLPVDLAVRQLKNIKDAF [RUNDC1]”, the “solubility change mitosis (log2)” value with HeLa Kyoto [1] is -0.215. Also, the “solubility in G1/S (log2)” value in the series on HeLa Kyoto [2] is -0.124.

“MADAAATAGAGGSGTRSGSKQSTNPADNYHLARRRTLQVVVSSLLTEAGFESAEKASVETLTEMLQSYISEIGRSAKSYCEHTARTQPTLSDIVVTLVEMGFNVDTLPAYAKRSQRMVITAPPVTNQPVTPKALTAGQNRPHPPHIPSHFPEFPDPHTYIKTPTYREPVSDYQVLREKAASQRRDVERALTRFMAKTGETQSLFKDDVSTFPLIAARPFTIPYLTALLPSELEMQQMEETDSSEQDEQTDTENLALHISMEDSGAEKENTSVLQQNPSLSGSRNGEENIIDNPYLRPVKKPKIRRKKSLS [TAF8]”: the “solubility change mitosis (log2)” value in the series on HeLa Kyoto [1] was 0.0206. Further, the “solubility in G1/S (log2)” value in the series with HeLa Kyoto [2] was determined as 0.116.

Take “MADSAELKQMVMSLRVSELQVLLGYAGRNKHGRKHELLTKALHLLKAGCSPAVQMKIKELYRRRFPQKIMTPADLSIPNVHSSPMPATLSPSTIPQLTYDGHPASSPLLPVSLLGPKHELELPHLTSALHPVHPDIKLQKLPFYDLLDELIKPTSLASDNSQRFRETCFAFALTPQQVQQISSSMDISGTKCDFTVQVQLRFCLSETSCPQEDHFPPNLCVKVNTKPCSLPGYLPPTKNGVEPKRPSRPINITSLVRLSTTVPNTIVVSWTAEIGRNYSMAVYLVKQLSSTVLLQRLRAKGIRNPDHSRALIKEKLTADPDSEIATTSLRVSLLCPLGKMRLTIPCRALTCSHLQCFDATLYIQMNEKKPTWVCPVCDKKAPYEHLIIDGLFMEILKYCTDCDEIQFKEDGTWAPMRSKKEVQEVSASYNGVDGCLSSTLEHQVASHHQSSNKNKKVEVIDLTIDSSSDEEEEEPSAKRTCPSLSPTSPLNNKGILSLPHQASPVSRTPSLPAVDTSYINTSLIQDYRHPFHMTPMPYDLQGLDFFPFLSGDNQHYNTSLLAAAAAAVSDDQDLLHSSRFFPYTSSQMFLDQLSAGGSTSLPTTNGSSSGSNSSLVSSNSLRESHSHTVTNRSSTDTASIFGIIPDIISLD [PIAS1]”: in the series with HeLa Kyoto [1], the “solubility change mitosis (log2)” value was found to be 0.113. Besides, the “solubility in G1/S (log2)” value in the series on HeLa Kyoto [2] is -0.461.

On to “MADSERLSAPGCWAACTNFSRTRKGILLFAEIILCLVILICFSASTPGYSSLSVIEMILAAIFFVVYMCDLHTKIPFINWPWSDFFRTLIAAILYLITSIVVLVERGNHSKIVAGVLGLIATCLFGYDAYVTFPVRQPRHTAAPTDPADGPV [PLP2]”, for which the “solubility change mitosis (log2)” value in the series on HeLa Kyoto [1] is -0.163. Moreover, the “solubility in G1/S (log2)” value in the series on HeLa Kyoto [2] is -0.0955.

As for “MADSSGRGAGKPATGPTNSSSAKKKDKRVQGGRVIESRYLQYEKKTTQKAPAGDGSQTRGKMSEGGRKSSLLQKSKADSSGVGKGDLQSTLLEGHGTAPPDLDLSAINDKSIVKKTPQLAKTISKKPESTSFSAPRKKSPDLSEAMEMMESQTLLLTLLSVKMENNLAEFERRAEKNLLIMCKEKEKLQKKAHELKRRLLLSQRKRELADVLDAQIEMLSPFEAVATRFKEQYRTFATALDTTRHELPVRSIHLEGDGQQLLDALQHELVTTQRLLGELDVGDSEENVQVLDLLSELKDVTAKKDLELRRSFAQVLELSAEASKEAALANQEVWEETQGMAPPSRWYFNQDSACRESGGAPKNTPLSEDDNPGASSAPAQATFISPSEDFSSSSQAEVPPSLSRSGRDLS [HAUS8]”, the “solubility change mitosis (log2)” value with HeLa Kyoto [1] amounted to 0.189. Moreover, the “solubility in G1/S (log2)” value in the series on HeLa Kyoto [2] was 0.514.

Regarding “MADVEDGEETCALASHSGSSGSKSGGDKMFSLKKWNAVAMWSWDVECDTCAICRVQVMDACLRCQAENKQEDCVVVWGECNHSFHNCCMSLWVKQNNRCPLCQQDWVVQRIGK [RNF7]”, in the series with HeLa Kyoto [1], the “solubility change mitosis (log2)” value is -0.169. The “solubility in G1/S (log2)” value in the series with HeLa Kyoto [2] was -0.165.

Turning to “MADWARAQSPGAVEEILDRENKRMADSLASKVTRLKSLALDIDRDAEDQNRYLDGMDSDFTSMTSLLTGSVKRFSTMARSGQDNRKLLCGMAVGLIVAFFILSYFLSRART [BET1L]”, in the series with HeLa Kyoto [1], the “solubility change mitosis (log2)” value was found to be 0.0489. Also, the “solubility in G1/S (log2)” value in the series on HeLa Kyoto [2] was -0.104.

As for “MAEAVERTDELVREYLLFRGFTHTLRQLDAEIKADKEKGFRVDKIVDQLQQLMQVYDLAALRDYWSYLERRLFSRLEDIYRPTIHKLKTSLFRFYLVYTIQTNRNDKAQEFFAKQATELQNQAEWKDWFVLPFLPSPDTNPTFATYFSRQWADTFIVSLHNFLSVLFQCMPVPVILNFDAECQRTNQVQEENEVLRQKLFALQAEIHRLKKEEQQPEEEEALVQHKLPPYVSNMDRLGDSELAMVCSQRNASLSQSPRVGFLSSLLPQSKKSPSRLSPAQGPPQPQSSAKKESFGGQGTKGKDPTSGAKDGKSLLSGLATGESGWSQHRQRRLQDHGKERKELFSTTTSQCAEKKPEASGPEAEPCPELHTEPVEPLTRASSAGPEGGGVRPEQPFIVLGQEEYGEHHSSIMHCRVDCSGRRVASLDVDGVIKVWSFNPIMQTKASSISKSPLLSLEWATKRDRLLLLGSGVGTVRLYDTEAKKNLCEININDNMPRILSLACSPNGASFVCSAAAPSLTSQVDFSAPDIGSKGMNQVPGRLLLWDTKTMKQQLQFSLDPEPIAINCTAFNHNGNLLVTGAADGVIRLFDMQQHECAMSWRAHYGEVYSVEFSYDENTVYSIGEDGKFIQWNIHKSGLKVSEYSLPSDATGPFVLSGYSGYKQVQVPRGRLFAFDSEGNYMLTCSATGGVIYKLGGDEKVLESCLSLGGHRAPVVTVDWSTAMDCGTCLTASMDGKIKLTTLLAHKA [WDR91]”, the “solubility change mitosis (log2)” value with HeLa Kyoto [1] was 0.0607. Moreover, the “solubility in G1/S (log2)” value in the series on HeLa Kyoto [2] is -0.122.

With “MAEEVSTLMKATVLMRQPGRVQEIVGALRKGGGDRLQVISDFDMTLSRFAYNGKRCPSSYNILDNSKIISEECRKELTALLHHYYPIEIDPHRTVKEKLPHMVEWWTKAHNLLCQQKIQKFQIAQVVRESNAMLREGYKTFFNTLYHNNIPLFIFSAGIGDILEEIIRQMKVFHPNIHIVSNYMDFNEDGFLQGFKGQLIHTYNKNSSACENSGYFQQLEGKTNVILLGDSIGDLTMADGVPGVQNILKIGFLNDKVEERRERYMDSYDIVLEKDETLDVVNGLLQHILCQGVQLEMQGP [NT5C3B]”, the “solubility change mitosis (log2)” value with HeLa Kyoto [1] is -0.136. Also, the “solubility in G1/S (log2)” value with HeLa Kyoto [2] was determined as 0.00588.
